According to the RNAGym collection of RNA variant scans (doi:10.1073/pnas.2313332121):

B1: TPR t1 (parent)
chain: GACCAAUCUGCCCUCAGAGCUCGAGAACAUCUUCGGAUGCAGAGGAGGCAGGCUUCGGUGGCGCGAUAGCGCCAACGUCCUCAACCUCCAAUGCAUCCCACCACAUGAUGAUGCCUGAAGAGCCUUGGUUUUUUG

Variants of: B1
Assay: polymerase ribozyme fitness, log enrichment relative to wild type (log ratio); higher = more active; in vitro selection for triplet polymerase activity
In short: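 Each subunit of a heterodimeric triplet polymerase ribozyme was mutagenized into a library by PCR, transcribed, and subjected to one round of in vitro selection, run in triplicate. Libraries were annealed with a biotinylated primer, the partner subunit and triplets, incubated frozen at −7 °C, and extended constructs were gel-excised, captured on streptavidin beads and recovered by RT-PCR. Input and output libraries were sequenced on Illumina, keeping genotypes with ≥10 input reads and ≥1 read per output. Fitness is log base 2 of genotype enrichment divided by wild-type enrichment, from inverse-variance-weighted replicate averages.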

Going from GACCAAUCUGCCCUCAGAGCUCGAGAACAUCUUAGGAUGCAGAGGAGGCAGGCUUCGGUGGCGCGAUAGCGCCAACGUCCUCCACCUCCAAUGCAUCCCACCACAUGAUGAUGCCUGAAGAGCCUUGGUUUUUUG to GACCAAUCUGCCCUCAGAGCUCGAGAACAUCUUAGGAUGCAGAGGAGGCAGGCUUCGGUGGCGCGAUAGCGCCAACGUCCUCAACCUCCAAUGCAUCCCACCCCAUGAUGAUGCCUGAAGAGCCUUGGUUUUUUG, the “polymerase ribozyme fitness (log ratio)” value falls from -3.65 to -4.26.

Compared with GACCAAUCUGCCCUCAGAGCUCGAGAACAUCUUAGGAUGCAGAGGAGGCUGGCUUCGGUGGCGCGAUAGCGCCAACGUCCUCGACCUCCAAUGCAUCCCACCACAUGAUGAUGCCUGAAGAGCCUUGGUUUUUUG, GACCAAUCUGCCCUCAGAGCUCGAGAACAUCUUAGGAUGCAGAGGAGGCAGGCUUCGGUGGCGCGAUAGCGGCAACGUCCUCAACCUCCAAUGCAUCCCACCACAUGAUGAUGCCUGAAGAGCCUUGGUUUUUUG is higher in “polymerase ribozyme fitness (log ratio)” value: -4.58 for the first, -3.33 for the second.

Compared with GACCAAUCUGCCCUCAGAGCUCGAGAACAUCUUAGGAUGCAGAGGAGGCAGGCUUCGGUGGCGCGAUAGCGCGAACGUCCUCAACCUCCAAUGCAUCCCACCACAUGAUGAUGCCUGAAGAGCCUUGGUUUUUUG, GACCAAUCUGCCCUCAGAGCUCGAGAACAUCUUAGGAUGCAGAGGAGGCAGGCUUCGGUGGCGCGAUAGCGCUUACGUCCUCAACCUCCAAUGCAUCCCACCACAUGAUGAUGCCUGAAGAGCCUUGGUUUUUUG is lower in “polymerase ribozyme fitness (log ratio)” value: -2.27 for the first, -3.25 for the second.

Compared with GACCAAUCUGCCCUCAGAGCUCGAGAACAUCUUAGGAUGCAGAGGAGGCUGGCUUCGGUGUCGCGAUAGCGCCAACGUCCUCAACCUCCAAUGCAUCCCACCACAUGAUGAUGCCUGAAGAGCCUUGGUUUUUUG, GACCAAUCUGCCCUCAGAGCUCGAGAACAUCUUAGGAUGCAGAGGAGGCUGGCUUCGGUGACGCGAUAGCCCCAACGUCCUCAACCUCCAAUGCAUCCCACCACAUGAUGAUGCCUGAAGAGGCUUGGUUUUUUG is lower in “polymerase ribozyme fitness (log ratio)” value: -3.7 for the first, -6.98 for the second.

Compared with GACCAAUCUGCCCUCAGAGCUCGAGAACAUCUUAGGAUGCUGAGGAGGCAGGCUUCGGUGCCGCGAUAGCGCCAACGUCCUCAACCUCCAAUGCAUCCCACCACAUGAUGAUGCCUGAAUAGCCUUGGUUUUUUG, GACCAAUCUGCCCUCAGAGCUCGAGAACAUCUUAGGAUGCAGAGGAGGCAGGCUUCGGUGGCGCGAUAGCGCCAACGUCCUCAACCUCCAAUGCAUCCCACCACAUGAUGAUGCCUGAAGAGCCUUGGUUUUUUG is higher in “polymerase ribozyme fitness (log ratio)” value: -6.86 for the first, -2.52 for the second.

Compared with GACCAAUCUGCCCUCAGAGCUCGAGAACAUCUUAGGUUGCAGAGGAGGCAGGCUUCGGUGGCGCGAUAGCGCCAACGUCCUGAACCUCCAAUGCAUCCCACCACAUGAUGAUGCCUGAAGAGCCUUGGUUUUUUG, GACCAAUCUGCCCUCAGAGCUCGAGAACAUCUUAGGAUGCAGAGGAGGCAGGCUUCGGUGGCGCGAUAGCGCAAACGUCCUCAAUCUCCAAUGCAUCCCACCACAUGAUGAUGCCUGAAGAGCCUUGGUAUUUUG is lower in “polymerase ribozyme fitness (log ratio)” value: -4.35 for the first, -4.99 for the second.

First: GACCAAUCUGCCCUCAGAGCUCGAGAACAUCUUAGGAUGCUGAGGAGGCAGGCUUCGGUCGCGCGAUAGCGCCAACGUCCUCAACCUCCAAUGCAUCCUACCAAAUGAUGAUGCCCGAAGAGCCAUGGUUUUUUG
Second: GACCAAUCUGCCCUCAGAGCUCGAGAACAUCUUAGGAUGCAGAGGAGGCUGGCUUCGGUGGCGCGAUAGCCCCAACGUCCUCAACCUCCAAUGCAUCCCACCACAUGAUGAUGCCUGAAGAGGCUUGGUUUUUUG
The “polymerase ribozyme fitness (log ratio)” value of the first is lower: -7.43 for the first, -4.86 for the second.

Compared with GACCAAUCUGCCCUCAGAGCUCGAGAACAUCUUAGGAUGCAGAGGAGGCAGGCUUCGGUGGCGCGAUAGGGGCAACGUCCUGAACCUCCAAUGCAUCCCACCACAUGAUGAUGCCUGAAGAGCCUUGGUUUUUUG, GACCAAUCUGCCCUCAGAGCUCGAGAACAUCUUAGGAUGCAGAGGAGGCAGGCUUCGGUGGCGCGUUAGCGCCAACGUCCUCAACCUCCAAUGCAUCCCAUCACAUGAUGAUGCCUGAAGAGCCUUGGUUUUUUG is higher in “polymerase ribozyme fitness (log ratio)” value: -6.51 for the first, -5.31 for the second.

GACCAAUCUGCCCUCAGAGCUCGAGAACAUCUGCGGAUGCAGAGGAGGCAGGCUUCGGUGGCGCGAUAGCGCCAACGUCCUCAACCUCCAAUGCAUCCCACCACAUGAUGAUGCCUGAAUAGCCUUGGUUUUUUG and GACCAAUCUGCCCUCAGAGCUCGAGAACAUCUUAGGAUGCAGAGGAGGGAGGCUUCGGUGGGGCGAUAGCGCCAACGUCCUCAACCUCCAAUGCAUCCCACCACAUGAUGAUGCCUGAAGGGCCUUGGUUUUUUG are within 0.2 log units of each other in “polymerase ribozyme fitness (log ratio)” value: -5.27 for the first, -5.41 for the second.

GACCAAUCUGCCCUCAGAGCUCGAGAACAUCUGCGGAUGCAGAGGAGGCAGGCUUCGGUGGCGCGAUAACGCCAACGUCCUCAACCUCCAAUGCAUCCCACCACAUGAUGAUGCCUGAAGAGCCUUGGUUUUUUG and GACCAAUCUGCCCUCAGAGCUCGAGAACAUCUGCGGAUGCAGAGGAGGCAGGCUUCGGUGGCGCGAUAGCACCAACGUCCUCAACCUCCAAUGCAUCCCACCACAUGAUGAUGCCUUAAGAGCCUUGGUUUUUUG are within 0.2 log units of each other in “polymerase ribozyme fitness (log ratio)” value: -7.83 for the first, -8.01 for the second.

Going from GACCAAUCUGCCCUCAGAGCUCGAGAACAUCUUAGGGUGCAGAGGAGGCAGGCUUCGGUGGCGCGAUAGCGCCAACGUCCUCAACCUCCAAUGCAUCCCACCACAUGAUGAUGCCUGAAGAGCCUUGGUUUUUUG to GACCAAUCUGCCCUCAGAGCUCGAGAACAUCUUAGGAUGCAGAGGAGGCAGGCUUCGGUGGCGCGAUAGCGCUAACGUCCUUAACCUCCAAUGCAUCCAACCACAUGAUGAUGCCUGAAGAGCCUUGGUUUUUUG, the “polymerase ribozyme fitness (log ratio)” value falls from -2.73 to -4.69.

Going from GACCAAUCUGCCCUCAGAGCUCGAGAACAUCUUAGGUUGCAGAGGAGUCAGGCUUCGGUGGCGGGAUGGCGCCAACGUCCUCAACCUCCAAUGGAUCCCACCACAUGAUGAUGCCUGAAUAGCCUUGGUUUUUUG to GACCAAUCUGCCCUCAGAGCUCGAGAACAUCUUAGGCUGCAGAGGAGGCAGGCUUCGGUGGCGCGAUAGCGUCAACGUCCUCAACCUCCAAUGCAUCCCACCACAUGAUGAUGCCUGGAGAGCCUUGGUUUUUUG, the “polymerase ribozyme fitness (log ratio)” value rises from -7.45 to -2.87.

GACCAAUCUGCCCUCAGAGCUCGAGAACAUCUUAGGAUGCAGAGGAGGCAGGCUUAGGUGGCGCGAUAGCGCCAACGCCCUCAACCUCCAAUGCAUCCCACCAUAUGAUGAUGCCUGAAGAGCCUUGGUUUUUUG and GACCAAUCUGCCCUCAGAGCUCGAGAACAUCUUAGGAUGCAGAGGAGGCAGGUUUCGGUGGCGCGAUAGCGCCAACGUCCUCAACCUCCAAUGCAUCACACCACAUGAUGAUGCCUGAAGAGCCUUGGUUUUUUG are within 0.2 log units of each other in “polymerase ribozyme fitness (log ratio)” value: -2.07 for the first, -1.98 for the second.

Compared with GACCAAUCUGCCCUCAGAGCUCGAGAACAUCUUAGGAUGCAGAGGAGGCAGGCUUUGGUGGCGCGAUAGCGCCAACGUCCUCAACCUCCAAUGCAUCCCACCACAUGAUGAUGCCUGAAGAGCCUUGGUUUUUUG, GACCAAUCUGCCCUCAGAGCUCGAGAACAUCUUAGGAUGCAGAGGAGGCAGGCUUAGGUGGCGCGAUAGCGCCAACGUCCUCAACCUCCAAUGCAUCCCACCACAUGAUGAUGCCUGAAGAGCCUUGGUUUUUUG is lower in “polymerase ribozyme fitness (log ratio)” value: -2.12 for the first, -3.11 for the second.

Compared with GACCAAUCUGCCCUCAGAGCUCGAGAACAUCUUAGGAUGCAGAGGAGGCAGGCUUCGGUGGCGCGAUAGCGCCAACGUCCUCAACCUCCAAUGCAUCCCACCACAUGAUGAUGCCUGAGGAGCCUUGGUUUUUUG, GACCAAUCUGCCCUCAGAGCUCGAGAACAUCUGCGGAUGCAGAGGAGGCAGGCUUCGGUGGCGCGAUAGCGCCAACGUCCUCAACCGCCAAUGCAUCCCACCACAUGAUGAUGCCUGAAGAGCCUUGGUUUUUUG is lower in “polymerase ribozyme fitness (log ratio)” value: -2.03 for the first, -5.18 for the second.

Going from GACCAAUCUGCCCUCAGAGCUCGAGAACAUCUUAGGAUGCAGAGGAGGCAGGCUUCGGUGGCGCGAUAGCGAAAACGUCCUCAACCUCCAAUGCAUUCCACCACAUGAUGAUGCCUGAAGAGCCUUGGUUUUUUG to GACCAAUCUGCCCUCAGAGCUCGAGAACAUCUUAGGAUGCAGAGGAGGCAGGCUUCGGUGGCGCGAUAGCGCGAACGUCCUCAACCUCCAAUGCAUCCCACCACAAGAUGAUGCCUGAAGAGCCUUGGUUUUUUG, the “polymerase ribozyme fitness (log ratio)” value falls from -3.88 to -4.25.

Going from GACCAAUCUGCCCUCAGAGCUCGAGAACAUCUUAGGAUGCAGAGGAGGCAGGCUUCGGUGGCGUGAUAGCGCCAACGUCCUCAACCUCCAAUGUAUCCCACCACAUGAUGAUGCCUGAAGAGCCUUGGUUUUUUG to GACCAAUCUGCCCUCAGAGCUCGAGAACAUCUUAGGAUGCGGAGGAGGCAGGCUUCGGUGGCGCGAUAGCGCCUACGUCCUCAACCUUCAAUGCAUCCCAUCACAUGAUGAUGCCUGAAGAGCCUUGGUUUUUUG, the “polymerase ribozyme fitness (log ratio)” value falls from -3.02 to -4.89.

GACCAAUCUGCCCUCAGAGCUCGAGAACAUCUUAGGAUGCGGAGGAGGCAGGCUUCGGUGGCGCGAUAGCGCCAACGUCCUCAACCUUCAAUGCAUCCCAUCACAUGAUGAUGCCUGAAGAGCCUUGGUUUUUUG and GACCAAUCUGCCCUCAGAGCUCGAGAACAUCUUAGGAUGCAGAGGAGGCGGGCUUCGGUGGCGCGAUAGCGCCAACGUCCUCAACCUCCAAUACAUCCCACCACAUGAUGAUGCCUGAAGAGCCUUGGUUUUUUG are within 0.2 log units of each other in “polymerase ribozyme fitness (log ratio)” value: -3.38 for the first, -3.46 for the second.

Going from GACCAAUCUGCCCUCAGAGCUCGAGAACAUCUUAGGCUGCAGAGGAGGCAGGCUUCGGUGGCGCGAUAGCGCCAACGUCCUCAACCUCCAAUGCAUCCCACCACAUGAUGAUGCCUGGAGAGCCUUGGUUUUUUG to GACCAAUCUGCCCUCAGAGCUCGAGAACAUCUUAGGGUGCAGAGGAGGCAGGUUUCGGUGGCGCGAUAGCGCCAACGGCCUCAACCUCCAAUGCAUCCCACCACAUGAUGAUGCCUGAAGAGCCUUGGUUUUUUG, the “polymerase ribozyme fitness (log ratio)” value rises from -2.59 to -2.19.

Compared with GACCAAUCUGCCCUCAGAGCUCGAGAACAUCUUAGGAUGCAGAGGAGGCAGGCUUCGGUGGCGCGAUAGUGCCAACGUCCUCAACCUCCAAUGCAUCCCACCACAUGAUGAUGCCUGAACAGCCUUGGUUUUUUG, GACCAAUCUGCCCUCAGAGCUCGAGAACAUCUUAGGAUGCAGAGGAGGCAGGAUUCGGUGCCGCGAUAGCGCCAACGUCCUCAACCUCCAAUGCAUCCCACCACAUGAUGAUGCCUGAAGAGCCUUGGUUUUUUG is lower in “polymerase ribozyme fitness (log ratio)” value: -4.45 for the first, -5.6 for the second.

Compared with GACCAAUCUGCCCUCAGAGCUCGAGAACAUCUUAGGAUGCAGUGGAGGCAGGCUUCGGUGACGCGAUAGCGCCAACGUCCUCAACCUUCAAUGCAUCCCACCACAUGAUGAUGCCUGAGGCGCCUUGGUUUUUUG, GACCAAUCUGCCCUCAGAGCUCGAGAACAUCUUAGGAUGCAGAGGAGGCAGGCUUCGGUGGCGCGAUAGCGCCAAUGUCCUCAACCUCCAAUGCAUCCCACCACAUGAUGAUGCCUGAACAGCCUUGGUUUUUUG is higher in “polymerase ribozyme fitness (log ratio)” value: -4.91 for the first, -3.22 for the second.
